# FireProtDB (doi:10.1021/bi973006i)
# Several values for one entry are separate records, joined by “and”; a condition that tells them apart may be missing. Equal entries are not always repeated.
# Settings: Thermal, reversible: yes
# [1] = Methanobacterium formicicum, pH 2, DSC, glycine 25 mM, KCl 1.0 M
# [2] = Methanobacterium formicicum, pH 3, DSC, glycine 25 mM, KCl 1.0 M
# [3] = Methanobacterium formicicum, pH 4, DSC, glycine 25 mM, KCl 0.2 M
# [4] = Methanobacterium formicicum, pH 4, DSC, glycine 25 mM, KCl 1.0 M
# [5] = Methanobacterium formicicum, pH 5, DSC, acetate 25 mM, KCl 0.2 M
# [6] = Methanobacterium formicicum, pH 5, DSC, acetate 25 mM, KCl 1.0 M
# [7] = Methanobacterium formicicum, pH 6, DSC, MES 25 mM, KCl 0.2 M
# [8] = Methanobacterium formicicum, pH 6, DSC, MES 25 mM, KCl 1.0 M
# [9] = Methanothermus fervidus, pH 3, DSC, glycine 25 mM, KCl 0.2 M
# [10] = Methanothermus fervidus, pH 4, DSC, glycine 25 mM, KCl 0.2 M
# [11] = Methanothermus fervidus, pH 5, DSC, acetate 25 mM, KCl 0.2 M
# [12] = Methanothermus fervidus, pH 6, DSC, MES 25 mM, KCl 0.2 M
# Sequence of DNA-binding protein HMf-1 wild type, P48781 (P48781 whole entry): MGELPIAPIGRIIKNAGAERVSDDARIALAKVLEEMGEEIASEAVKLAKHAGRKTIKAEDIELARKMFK
# Sequence of Archaeal histone B wild type, O59627 (O59627 whole entry): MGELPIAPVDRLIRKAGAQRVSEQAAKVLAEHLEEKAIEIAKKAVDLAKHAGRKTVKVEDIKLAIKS
# Sequence of Archaeal histone A1 wild type, P48782 (P48782 whole entry): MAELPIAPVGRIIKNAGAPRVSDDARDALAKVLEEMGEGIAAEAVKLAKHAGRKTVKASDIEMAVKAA
substance,measurement,setting,value
"Archaeal histone A1 wild type, P48782",Tm,"Methanobacterium formicicum, pH 2, CD, glycine 25 mM, KCl 1.0 M",60.3 °C
same,Tm,[1],64.7 °C
same,unfolding enthalpy (calorimetric),[1],10.5 kcal/mol
same,unfolding enthalpy (van 't Hoff),[1],115 kcal/mol
same,Tm,"Methanobacterium formicicum, pH 3, CD, glycine 25 mM, KCl 1.0 M",73 °C
same,Tm,[2],77 °C
same,unfolding enthalpy (calorimetric),[2],35.4 kcal/mol
same,unfolding enthalpy (van 't Hoff),[2],109 kcal/mol
same,Tm,"Methanobacterium formicicum, pH 4, CD, glycine 25 mM, KCl 1.0 M",91.5 °C
same,Tm,[3],75.6 °C
same,unfolding enthalpy (calorimetric),[3],45.6 kcal/mol
same,unfolding enthalpy (van 't Hoff),[3],91.1 kcal/mol
same,Tm,[4],90.3 °C
same,unfolding enthalpy (calorimetric),[4],47.1 kcal/mol
same,unfolding enthalpy (van 't Hoff),[4],129 kcal/mol
same,Tm,"Methanobacterium formicicum, pH 5, CD, acetate 25 mM, KCl 0.2 M",74.8 °C
same,Tm,"Methanobacterium formicicum, pH 5, CD, acetate 25 mM, KCl 1.0 M",92 °C
same,Tm,[5],76.9 °C
same,unfolding enthalpy (calorimetric),[5],36.9 kcal/mol
same,unfolding enthalpy (van 't Hoff),[5],114 kcal/mol
same,Tm,[6],90.9 °C
same,unfolding enthalpy (calorimetric),[6],41 kcal/mol
same,unfolding enthalpy (van 't Hoff),[6],124 kcal/mol
same,Tm,"Methanobacterium formicicum, pH 6, CD, MES 25 mM, KCl 0.2 M",70.9 °C
same,Tm,[7],76.5 °C
same,unfolding enthalpy (calorimetric),[7],63.9 kcal/mol
same,unfolding enthalpy (van 't Hoff),[7],94.9 kcal/mol
same,Tm,[8],90.5 °C
same,unfolding enthalpy (calorimetric),[8],50.4 kcal/mol
same,unfolding enthalpy (van 't Hoff),[8],122 kcal/mol
"Archaeal histone B wild type, O59627",Tm,"Pyrococcus furiosus (strain ATCC 43587 / DSM 3638 / JCM 8422 / Vc1), pH 4, CD, glycine 25 mM, KCl 0.2 M",107 °C
same,Tm,"Pyrococcus furiosus (strain ATCC 43587 / DSM 3638 / JCM 8422 / Vc1), pH 5, CD, acetate 25 mM, KCl 0.2 M",114 °C
same,Tm,"Pyrococcus furiosus (strain ATCC 43587 / DSM 3638 / JCM 8422 / Vc1), pH 7.5, CD, phosphate 25 mM, KCl 0.2 M",110 °C
"DNA-binding protein HMf-1 wild type, P48781",Tm,"Methanothermus fervidus, pH 2, CD, glycine 25 mM, KCl 1.0 M",94 °C
same,Tm,"Methanothermus fervidus, pH 2.5, CD, glycine 25 mM, KCl 0.2 M",78.2 °C
same,Tm,"Methanothermus fervidus, pH 2.7, CD, glycine 25 mM, KCl 0.2 M",84.9 °C
same,Tm,"Methanothermus fervidus, pH 3, CD, glycine 25 mM, KCl 0.2 M",84.6 °C and 89.3 °C
same,Tm,"Methanothermus fervidus, pH 3, CD, glycine 25 mM, KCl 1.0 M",101 °C
same,Tm,[9],96.1 °C
same,unfolding enthalpy (calorimetric),[9],14.1 kcal/mol
same,unfolding enthalpy (van 't Hoff),[9],139 kcal/mol
same,Tm,"Methanothermus fervidus, pH 3.3, CD, glycine 25 mM, KCl 0.2 M",94.1 °C
same,Tm,"Methanothermus fervidus, pH 3.7, CD, glycine 25 mM, KCl 0.2 M",103 °C
same,Tm,"Methanothermus fervidus, pH 4, CD, glycine 25 mM, KCl 0.2 M",100 °C and 103 °C
same,Tm,[10],97.6 °C
same,unfolding enthalpy (calorimetric),[10],41.3 kcal/mol
same,unfolding enthalpy (van 't Hoff),[10],158 kcal/mol
same,Tm,[11],104 °C
same,unfolding enthalpy (calorimetric),[11],37.3 kcal/mol
same,unfolding enthalpy (van 't Hoff),[11],164 kcal/mol
same,Tm,[12],101 °C
same,unfolding enthalpy (calorimetric),[12],44.5 kcal/mol
same,unfolding enthalpy (van 't Hoff),[12],158 kcal/mol
